T1: human FcγRIIB (human, UniProt P31994 43-310)
T1 construct: whole, on cells; also called hFcγRIIB
T1 sequence (looked up): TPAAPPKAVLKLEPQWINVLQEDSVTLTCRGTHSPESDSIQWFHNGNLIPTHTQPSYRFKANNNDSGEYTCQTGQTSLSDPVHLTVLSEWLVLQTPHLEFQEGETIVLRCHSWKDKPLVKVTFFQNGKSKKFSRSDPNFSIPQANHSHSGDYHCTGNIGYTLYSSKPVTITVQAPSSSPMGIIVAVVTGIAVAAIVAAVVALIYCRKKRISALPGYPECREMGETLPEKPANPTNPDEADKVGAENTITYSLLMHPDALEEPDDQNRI

B1: humanized antibody #2B1 (mutations L234A & L235E) (antibody, human IgG1, kappa)
heavy: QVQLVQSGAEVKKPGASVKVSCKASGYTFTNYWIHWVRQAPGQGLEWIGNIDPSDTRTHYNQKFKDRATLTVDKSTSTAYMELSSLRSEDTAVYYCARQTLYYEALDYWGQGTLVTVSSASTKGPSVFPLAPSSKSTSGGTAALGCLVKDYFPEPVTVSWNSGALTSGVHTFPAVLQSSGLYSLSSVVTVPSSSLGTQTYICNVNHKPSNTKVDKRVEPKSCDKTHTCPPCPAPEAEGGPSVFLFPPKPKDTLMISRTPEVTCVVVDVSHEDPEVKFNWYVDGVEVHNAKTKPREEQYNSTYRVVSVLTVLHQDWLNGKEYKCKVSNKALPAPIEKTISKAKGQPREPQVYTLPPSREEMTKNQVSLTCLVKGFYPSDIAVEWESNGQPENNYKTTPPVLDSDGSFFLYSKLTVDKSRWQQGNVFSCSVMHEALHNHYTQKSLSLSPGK
light: EIVMTQSPATLSVSPGERATLSCKASQDVSTAVAWYQQKPGQAPRLLIYWASTRHTGIPARFSGSRSGTEYTLTISSLQSEDFAVYYCQQDYSTPPTFGGGTKVEIKRTVAAPSVFIFPPSDEQLKSGTASVVCLLNNFYPREAKVQWKVDNALQSGNSQESVTEQDSKDSTYSLSSTLTLSKADYEKHKVYACEVTHQGLSSPVTKSFNRGEC
notes: #2B with L234A and L235E in the heavy chain constant region; also called Ab #2B1; copies: 2 + 2
B2: human FcγRIIA (H131) (receptor, UniProt P12318 34-317, looked up)
chain: QAAAPPKAVLKLEPPWINVLQEDSVTLTCQGARSPESDSIQWFHNGNLIPTHTQPSYRFKANNNDSGEYTCQTGQTSLSDPVHLTVLSEWLVLQTPHLEFQEGETIMLRCHSWKDKPLVKVTFFQNGKSQKFSHLDPTFSIPQANHSHSGDYHCTGNIGYTLFSSKPVTITVQVPSMGSSSPMGIIVAVVIATAVAAIVAAVVALIYCRKKRISANSTDPVKAAQFEPPGRQMIAIRKRQLEETNNDYETADGGYMTLNPRAPTDDDKNIYLTLPPNDHVNSNN
notes: whole, on cells; Allelic variant with His at 131 (mature numbering as printed)
B3: human FcγRIIIB(SH) (receptor, UniProt O75015 17-200, looked up)
chain: GMRTEDLPKAVVFLEPQWYSVLEKDSVTLKCQGAYSPEDNSTQWFHNESLISSQASSYFIDDATVNDSGEYRCQTNLSTLSDPVQLEVHIGWLLLQAPRWVFKEEDPIHLRCHSWKNTALHKVTYLQNGKDRKYFHHNSDFHIPKATLKDSGSYFCRGLVGSKNVSSETVNITITQGLAVSTIS
notes: whole, on cells
B4: human FcγRIIIB(NA1) (receptor, UniProt O75015 17-200, looked up)
chain: B3 chain with S20R, S49N, D62A, N66D, I90V
notes: whole, on cells
B5: human FcγRIIIB(NA2) (receptor, UniProt O75015 17-200, looked up)
chain: B3 chain with D62A
notes: whole, on cells
B6: human FcγRIIA(R131) (receptor, UniProt P12318 34-317, looked up)
chain: B2 chain with H134R
notes: whole, on cells; Allelic variant with Arg at 131 (so in the source)
B7: humanized antibody #2A (antibody, V domains shown)
VH: QVQLVQSGAEVKKPGASVKVSCKASGYTFTNYWIHWVRRAPGQGLEWIGNIDPSDTRTHYNQKFKDRATLTVDKSTSTAYMELSSLRSEDTAVYYCARQTLYYEALDYWGQGTLVTVSS
VL: EIVMTQSPATLSVSPGERATLSCKASQDVSTAVAWYQEKPGQAPRLLIYWASTRHTGIPARFSGSRSGTEYTLTISSLQSEDFAVYYCQQDYSTPPTFGGGTKVEIK
notes: CDR-grafted 14G9; version A keeps Arg H39 and Glu L38; also called Ab #2A

Assay [1] deals with T2, recombinant human sPLA2-GIB (mature secreted group IB pancreatic phospholipase A2) (human, UniProt P04054 23-148).
T2 construct: also called sPLA2-IB; PLA2-GIB mature form
As to the kind of experiment: SPR (BIAcore 2000), antibody captured, antigen in solution. The protocol: (§1) The affinity constants (KD) of the pro-sPLA2-GIB and sPLA2-GIB binding to the #2B, #2B1 and #2B2 antibodies were determined by surface kinetics on a real-time biosensor surface plasmon resonance assay (BIAcore™). More specifically, the affinity of the antibodies for human pro-sPLA2-IB and sPLA2-IB was measured using a BIAcore® 2000. The antibody was captured on an anti-mouse IgG surface and exposed to various concentrations of recombinant pro-sPLA2-IB and sPLA2-IB protein. Kinetic analysis using BIAevaluation™ software was performed to obtain the association and dissociation rate constants.
(§2) The affinity constants (KD) of the pro-sPLA2-GIB and sPLA2-GIB binding to #2B1 and #2B2 were determined by surface kinetics on a real-time biosensor surface plasmon resonance assay (BIAcore™). The antibody was captured on an anti-mouse IgG surface and exposed to various concentrations of recombinant pro-sPLA2-IB and sPLA2-IB protein. Kinetic analysis using BIAevaluation™ software was performed to obtain the association and dissociation rate constants (Table 7).
In general terms: SPR reads the build-up and loss of mass on a sensor chip optically.

The target of assay [2] is T3, recombinant human pro-sPLA2-GIB (human, UniProt P04054 16-148).
T3 construct: also called pro-sPLA2-IB; proPLA2-GIB
Described as above. The protocol:
as §1, §2

In the assay “human FcγRIIA (H131)” the target is B2. As to the kind of experiment: flow cytometry, monomeric IgG on CHO cells expressing the receptor. The protocol: (§3) Monomeric IgG binding was tested by incubating the #2B, #2B1 and #2B2 antibodies (100 ng/mL) with 1×10⁵ CHO cells stably expressing human FcγRs for 30 min on ice. The cells were then washed, detached, fixed, and analyzed by flow cytometry (FACSCalibur; BD Biosciences).
(§4) The binding of monomeric #2B, #2B1 and #2B2 to human FcγRs was tested by flow cytometry by incubating the mAbs with CHO cells stably expressing human FcγRI, FcγRIIA (H131), FcγRIIA(R131), FcγRIIB, FcγRIIIA(F176), FcγRIIIA(V176), FcγRIIIB(NA1), FcγRIIIB(NA2), and FcγRIIIB(SH), (REF P. Bruhns). As presented in FIG. 9, #2B is binding to hFcγRI and hFcγRIIIA(V176) only, whereas no monomeric binding of #2B1 and #2B2 to all tested hFcγRs was observed. Antibody-antigen immune complex was tested by first incubating the mAb with the antigen and then, incubating the immune complexes formed with CHO cells stably expressing human FcγRs. The immune complexe of #2B is binding to all tested hFcγRs, except hFcγRIIB (FIG. 10). Weak binding is observed for immune complex of #2B1 to hFcγRIIIA(V176) (data not shown), whereas no immune complex binding of #2B2 to any tested hFcγRs (data not shown).
(Flow cytometry measures light scatter and fluorescence of single cells or particles in a stream.)

The assay “human FcγRIIIB(NA1)” has as its target B4. The description is as above. The protocol:
as §3, §4

For a further assay, the target named is T4, human FcγRIIIA(V176) (human, UniProt P08637 17-254).
T4 construct: whole, on cells; also called hFcγRIIIA(V176)
The assay is described as above. Here is the method: as §3, §4

In the assay “human FcγRIIIB(SH)” the target is B3. The assay is described as above. The protocol: as §3, §4
For the assay “human FcγRIIA(R131)”, the target named is B6. The assay is described as above. The protocol:
as §3, §4

Another assay addresses T5, human FcγRIIIA(F176) (human, UniProt P08637 17-254).
T5 construct: whole, on cells
Described as above. The protocol: as §3, §4

In another assay the target is T6, human FcγRI (human, UniProt P12314 16-374).
T6 construct: whole, on cells; also called hFcγRI
Described as above. Here is the method:
as §3, §4

The assay “human FcγRIIIB(NA2)” deals with B5. Described as above. Here is the method: as §3, §4
In a further assay the target is T1, human FcγRIIB. The description is as above. The protocol: as §3, §4
Assay [3] addresses immune complex of #2B2 with sPLA2-GIB (human, UniProt P04054 23-148). As to the kind of experiment: flow cytometry, antibody-antigen immune complex on CHO cells expressing the receptor. The protocol: Antibody-antigen immune complex were generated by co-incubation of 10 µg/ml of humanized antibodies and 5 μg/ml of sPLA2-GIB for 30 min at 37° C. Immune complexes were then incubated with 1×10⁵ CHO cells stably expressing human FcγRs for 30 min on ice. The cells were then washed, detached, fixed, and analyzed by flow cytometry (FACSCalibur; BD Biosciences).
as §4

The target in assay [4] is T2, recombinant human sPLA2-GIB (mature …). As to the kind of experiment: competitive ELISA: constant antibody premixed with dilutions of soluble antigen, free antibody caught on antigen-coated plate. Here is the method: (§5) Binding affinities of the humanized antibodies to pro-sPLA2-GIB and sPLA2-GIB were measured by plate-based competition immunoassay. For the competition ELISA, briefly, constant amounts of antibody at different levels were premixed with serial dilutions of antigen protein, human sPLA2-GIB or pro-sPLA2-GIB, ranging from 0 to 10 μg/ml, and incubated for two hours at room temperature to reach pseudo-binding equilibrium between the antibody and antigen. These solutions were then transferred to 96-well sPLA2-GIB or pro-sPLA2-GIB pre-coated plates to allow the free-antibody in the mixtures to bind to plate-coated sPLA2-GIB or pro-sPLA2-GIB. The plates were typically coated with 30 to 100 ng of human sPLA2-GIB or pro-sPLA2-GIB protein in PBS solution overnight at 4° C. followed by BSA nonspecific blocking. After washing off excess antibody in solution, plate-bound antibodies were detected with an HRP-conjugated goat anti-mouse IgG or IgA polyclonal antibody reagent and developed using colorimetric substrate. The dependency of the signals on the concentrations of antigen in solution was analyzed with a 4-parameter fit analysis using Prism™ software (Graph Pad) and reported as IC50.
(§6) The respective binding affinities of the humanized antibodies to human pro-sPLA2-GIB and human sPLA2-GIB were measured by plate-based competition immunoassay. Briefly, constant amounts of antibody at different levels were premixed with serial dilutions of antigen proteins to reach pseudo-binding equilibrium between the antibody and antigen. These solutions were then transferred to antigen pre-coated plates to allow the free-antibody in the mixtures to bind to plate-coated sPLA2-GIB or pro-sPLA2-GIB. Plate-bound antibodies were detected with an HRP-conjugated polyclonal antibody. Data were fitted with a 4PL logistic non-linear regression model and the relative IC50 values were estimated from the model (Table 4).
For orientation: An ELISA detects its analyte on a solid surface through an enzyme-linked reagent.

Assay [5] has as its target T3, recombinant human pro-sPLA2-GIB. The assay is described as above. Here is the method:
as §5, §6

Positions count from the first letter of the chain named. Names and notes keep the numbering of the source.

T2 sequence (P04054 23-148): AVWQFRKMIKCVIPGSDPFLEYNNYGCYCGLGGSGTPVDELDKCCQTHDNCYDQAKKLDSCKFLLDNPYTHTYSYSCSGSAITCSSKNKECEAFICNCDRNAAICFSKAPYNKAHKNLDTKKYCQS
Sequence of immune complex of #2B2 with sPLA2-GIB (P04054 23-148, one chain of several): as the sequence (P04054 23-148) above
T3 sequence (P04054 16-148): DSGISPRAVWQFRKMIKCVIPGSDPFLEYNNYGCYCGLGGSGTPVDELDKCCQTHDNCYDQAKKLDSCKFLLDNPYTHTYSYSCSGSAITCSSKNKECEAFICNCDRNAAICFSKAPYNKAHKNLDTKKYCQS
T5 sequence (P08637 17-254): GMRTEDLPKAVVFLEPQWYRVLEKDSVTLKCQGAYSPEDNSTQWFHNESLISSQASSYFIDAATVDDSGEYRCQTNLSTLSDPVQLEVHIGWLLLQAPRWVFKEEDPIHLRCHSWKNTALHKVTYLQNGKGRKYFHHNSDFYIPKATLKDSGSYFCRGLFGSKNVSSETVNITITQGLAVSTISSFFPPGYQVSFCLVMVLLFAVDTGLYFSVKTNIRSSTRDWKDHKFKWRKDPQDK
T4 sequence (P08637 17-254 F176V limits assumed): as the sequence (P08637 17-254) above, with F160V counted along it
Sequence of human FcγRIIIB(NA1) (O75015 other isoform, or with tags, fused parts or gaps): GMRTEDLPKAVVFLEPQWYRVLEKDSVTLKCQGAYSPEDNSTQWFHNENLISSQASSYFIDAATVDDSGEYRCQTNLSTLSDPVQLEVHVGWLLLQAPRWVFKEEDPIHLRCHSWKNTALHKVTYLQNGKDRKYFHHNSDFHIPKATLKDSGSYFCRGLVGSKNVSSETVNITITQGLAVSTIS
T6 sequence (P12314 16-374): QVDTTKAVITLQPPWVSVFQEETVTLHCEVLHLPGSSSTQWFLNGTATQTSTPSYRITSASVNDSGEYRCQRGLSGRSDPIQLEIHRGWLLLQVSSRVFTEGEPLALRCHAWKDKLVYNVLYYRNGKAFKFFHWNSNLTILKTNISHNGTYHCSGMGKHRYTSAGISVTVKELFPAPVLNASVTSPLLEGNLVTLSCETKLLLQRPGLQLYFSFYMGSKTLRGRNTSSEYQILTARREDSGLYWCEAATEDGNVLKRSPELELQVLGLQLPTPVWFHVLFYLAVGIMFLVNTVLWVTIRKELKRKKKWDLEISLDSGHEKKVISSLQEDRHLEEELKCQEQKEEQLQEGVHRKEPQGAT
Sequence of human FcγRIIIB(NA2) (O75015 17-200 N65S): as the sequence (O75015 other isoform, or with tags, fused parts or gaps) above, with R20S, N49S, D66N, V90I counted along it

As usually defined, the Kd is the equilibrium constant for the complex coming apart. A word on the koff: it is the rate constant with which the complex falls apart. A word on the kon: it is a measure of how fast the partners come together. A word on the t½: it is the time in which the quantity being followed falls by half. For B1, the results for the Kd in assay [1] and in assay [2] were 0.729 nM and 853 nM, respectively. The koff was 0.00203 s⁻¹ in [1] and 0.155 s⁻¹ in assay [2]. Further, the kon in assay [1] came out at 2.78e+06 M⁻¹ s⁻¹; in assay [2], 181000 M⁻¹ s⁻¹. Moreover, the t½ in [1] turned out to be 5.7 min; in assay [2] it was 0.074 min. Also, the binding result with human FcγRIIA (H131), with human FcγRIIIB(NA1), in the assay with human FcγRIIIA(V176), with human FcγRIIIB(SH), with human FcγRIIA(R131) and with human FcγRIIIA(F176) was “no binding (tested: 100 ng/mL)” in each case. The binding result with human FcγRI, in the assay with human FcγRIIIB(NA2) and in the assay with human FcγRIIB was “no binding (tested: 100 ng/mL)” in each case.
Take B2: in [3], the binding result is on record as “no binding”.
As for B3, the binding result in assay [3] is listed as “no binding”.
With B4, the binding result in assay [3] is “no binding”.
With B5, the binding result in [3] is recorded as “no binding”.
In the case of B6, the binding result in assay [3] is reported as “no binding”.
Usually IC50 stands for the concentration that gives 50% inhibition. For the molecule B7, the values for the concentration for half-maximal inhibition (IC50) in [4] and in assay [5] were 1.9 nM and 216 nM, respectively.
